Reference: IntAct's records for PubMed 29039417

B1: BBSome complex member BBS5 (Homo sapiens), Q8N3I7 (parent)
chain: MSVLDALWEDRDVRFDLSAQQMKTRPGEVLIDCLDSIEDTKGNNGDRGRLLVTNLRILWHSLALSRVNVSVGYNCILNITTRTANSKLRGQTEALYILTKCNSTRFEFIFTNLVPGSPRLFTSVMAVHRAYETSKMYRDFKLRSALIQNKQLRLLPQEHVYDKINGVWNLSSDQGNLGTFFITNVRIVWHANMNDSFNVSIPYLQIRSIKIRDSKFGLALVIESSQQSGGYVLGFKIDPVEKLQESVKEINSLHKVYSASPIFGVDYEMEEKPQPLEALTVEQIQDDVEIDSDGHTDAFVAYFADGNKQQDREPVFSEELGLAIEKLKDGFTLQGLWEVMS
partner: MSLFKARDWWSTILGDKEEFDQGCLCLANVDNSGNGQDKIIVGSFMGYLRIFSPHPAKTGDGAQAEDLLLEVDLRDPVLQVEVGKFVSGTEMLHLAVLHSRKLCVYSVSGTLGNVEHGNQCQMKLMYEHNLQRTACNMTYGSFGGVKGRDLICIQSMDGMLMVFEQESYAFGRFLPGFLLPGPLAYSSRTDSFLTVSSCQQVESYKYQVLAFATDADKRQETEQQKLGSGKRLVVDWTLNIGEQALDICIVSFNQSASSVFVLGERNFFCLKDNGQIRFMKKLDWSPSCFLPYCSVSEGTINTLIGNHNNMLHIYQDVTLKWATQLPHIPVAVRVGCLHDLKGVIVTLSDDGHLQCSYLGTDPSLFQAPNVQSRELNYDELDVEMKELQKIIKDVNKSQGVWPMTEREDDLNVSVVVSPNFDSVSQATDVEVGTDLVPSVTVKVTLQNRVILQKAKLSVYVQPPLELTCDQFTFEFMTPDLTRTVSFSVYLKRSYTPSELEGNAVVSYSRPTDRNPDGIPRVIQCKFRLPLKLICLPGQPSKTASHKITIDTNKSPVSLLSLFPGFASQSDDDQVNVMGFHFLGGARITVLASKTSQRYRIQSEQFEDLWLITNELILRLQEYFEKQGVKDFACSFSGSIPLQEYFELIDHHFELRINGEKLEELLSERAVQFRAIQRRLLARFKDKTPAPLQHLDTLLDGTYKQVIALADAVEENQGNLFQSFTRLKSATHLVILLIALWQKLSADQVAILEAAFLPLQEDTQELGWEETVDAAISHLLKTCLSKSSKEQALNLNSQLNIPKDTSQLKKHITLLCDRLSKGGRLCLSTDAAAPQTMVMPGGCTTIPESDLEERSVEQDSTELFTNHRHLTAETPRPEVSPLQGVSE

Variants of: B1
Settings: with pthb1_human BBS9, Q3SYG4

Variant | effect of a mutation on the interaction
MSVLDALWEDRDVRFDLSAQQMKTRPGEVLIDCLDSIEDTKGNNGDRGRLLVTNLRILWHSLALSRVNVSVGYNCILNITTRTANSKLRGQTEALYILTKCNSTRFEFIFTNLVPGSPRLFTSVMAVHRAYETSKMYRDFKLRSALIQNKQLRLLPQEHVYDKINGVWNLSSDQGNLGTFFITNVRIVWHANMNDSFNVSIPYLQERSIKIRDSKFGLALVIESSQQSGGYVLGFKIDPVEKLQESVKEINSLHKVYSASPIFGVDYEMEEKPQPLEALTVEQIQDDVEIDSDGHTDAFVAYFADGNKQQDREPVFSEELGLAIEKLKDGFTLQGLWEVMS [I206E] | with no effect
MSVLDALWEDRDVRFDLSAQQMKTRPGEVLIDCLDSIEDTKGNNGDRGRLLVTNLRILWHSLALSRVNVSVGYNCILNITTRTANSKLRGQTEALYILTKCNSTRFEFIFTNLVPGSPRLFTSVMAVHRAYETSKMYRDFKLRSALIQNKQLRLLPQEHVYDKINGVWNLSSDQGNLGTFFITNVRIVWHANMNDSFNVSIPYLQKRSIKIRDSKFGLALVIESSQQSGGYVLGFKIDPVEKLQESVKEINSLHKVYSASPIFGVDYEMEEKPQPLEALTVEQIQDDVEIDSDGHTDAFVAYFADGNKQQDREPVFSEELGLAIEKLKDGFTLQGLWEVMS [I206K] | with no effect
MSVLDALWEDRDVRFDLSAQQMKTRPGEVLIDCLDSIEDTKGNNGDRGRLLVTNLRILWHSLALSRVNVSVGYNCILNITTRTANSKLRGQTEALYILTKCNSTRFEFIFTNLVPGSPRLFTSVMAVHRAYETSKMYRDFKLRSALIQNKQLRLLPQEHVYDKINGVWNLSSDQGNLGTFFITNVRIVWHANMNDSFNVSIPYLQARSIKIRDSKFGLALVIESSQQSGGYVLGFKIDPVEKLQESVKEINSLHKVYSASPIFGVDYEMEEKPQPLEALTVEQIQDDVEIDSDGHTDAFVAYFADGNKQQDREPVFSEELGLAIEKLKDGFTLQGLWEVMS [I206A] | with no effect
MSVLDALWEDRDVRFDLSAQQMKTRPGEVLIDCLDSIEDTKGNNGDRGRLLVTNLRILWHSLALSRVNVSVGYNCILNITTRTANSKLRGQTEALYILTKCNSTRFEFIFTNLVPGSPRLFTSVMAVHRAYETSKMYRDFKLRSALIQNKQLRLLPQEHVYDKINGVWNLSSDQGNLGTFFITNVRIVWHANMNDSFNVSIPYLQIASIKIRDSKFGLALVIESSQQSGGYVLGFKIDPVEKLQESVKEINSLHKVYSASPIFGVDYEMEEKPQPLEALTVEQIQDDVEIDSDGHTDAFVAYFADGNKQQDREPVFSEELGLAIEKLKDGFTLQGLWEVMS [R207A] | with no effect
MSVLDALWEDRDVRFDLSAQQMKTRPGEVLIDCLDSIEDTKGNNGDRGRLLVTNLRILWHSLALSRVNVSVGYNCILNITTRTANSKLRGQTEALYILTKCNSTRFEFIFTNLVPGSPRLFTSVMAVHRAYETSKMYRDFKLRSALIQNKQLRLLPQEHVYDKINGVWNLSSDQGNLGTFFITNVRIVWHANMNDSFNVSIPYLQIESIKIRDSKFGLALVIESSQQSGGYVLGFKIDPVEKLQESVKEINSLHKVYSASPIFGVDYEMEEKPQPLEALTVEQIQDDVEIDSDGHTDAFVAYFADGNKQQDREPVFSEELGLAIEKLKDGFTLQGLWEVMS [R207E] | with no effect
MSVLDALWEDRDVRFDLSAQQMKTRPGEVLIDCLDSIEDTKGNNGDRGRLLVTNLRILWHSLALSRVNVSVGYNCILNITTRTANSKLRGQTEALYILTKCNSTRFEFIFTNLVPGSPRLFTSVMAVHRAYETSKMYRDFKLRSALIQNKQLRLLPQEHVYDKINGVWNLSSDQGNLGTFFITNVRIVWHANMNDSFNVSIPYAQIRSIKIRDSKFGLALVIESSQQSGGYVLGFKIDPVEKLQESVKEINSLHKVYSASPIFGVDYEMEEKPQPLEALTVEQIQDDVEIDSDGHTDAFVAYFADGNKQQDREPVFSEELGLAIEKLKDGFTLQGLWEVMS [L204A] | with no effect
MSVLDALWEDRDVRFDLSAQQMKTRPGEVLIDCLDSIEDTKGNNGDRGRLLVTNLRILWHSLALSRVNVSVGYNCILNITTRTANSKLRGQTEALYILTKCNSTRFEFIFTNLVPGSPRLFTSVMAVHRAYETSKMYRDFKLRSALIQNKQLRLLPQEHVYDKINGVWNLSSDQGNLGTFFITNVRIVWHANMNDSFNVSIPYEQIRSIKIRDSKFGLALVIESSQQSGGYVLGFKIDPVEKLQESVKEINSLHKVYSASPIFGVDYEMEEKPQPLEALTVEQIQDDVEIDSDGHTDAFVAYFADGNKQQDREPVFSEELGLAIEKLKDGFTLQGLWEVMS [L204E] | with no effect
MSVLDALWEDRDVRFDLSAQQMKTRPGEVLIDCLDSIEDTKGNNGDRGRLLVTNLRILWHSLALSRVNVSVGYNCILNITTRTANSKLRGQTEALYILTKCNSTRFEFIFTNLVPGSPRLFTSVMAVHRAYETSKMYRDFKLRSALIQNKQLRLLPQEHVYDKINGVWNLSSDQGNLGTFFITNVRIVWHANMNDSFNVSIPYKQIRSIKIRDSKFGLALVIESSQQSGGYVLGFKIDPVEKLQESVKEINSLHKVYSASPIFGVDYEMEEKPQPLEALTVEQIQDDVEIDSDGHTDAFVAYFADGNKQQDREPVFSEELGLAIEKLKDGFTLQGLWEVMS [L204K] | with no effect
MSVLDALWEDRDVRFDLSAQQMKTRPGEVLIDCLDSIEDTKGNNGDRGRLLVTNLRILWHSLALSRVNVSVGYNCILNITTRTANSKLRGQTEALYILTKCNSTRFEFIFTNLVPGSPRLFTSVMAVHRAYETSKMYRDFKLRSALIQNKQLRLLPQEHVYDKINGVWNLSSDQGNLGTFFITNVRIVWHANMNDSFNVSIPYLAIRSIKIRDSKFGLALVIESSQQSGGYVLGFKIDPVEKLQESVKEINSLHKVYSASPIFGVDYEMEEKPQPLEALTVEQIQDDVEIDSDGHTDAFVAYFADGNKQQDREPVFSEELGLAIEKLKDGFTLQGLWEVMS [Q205A] | with no effect
MSVLDALWEDRDVRFDLSAQQMKTRPGEVLIDCLDSIEDTKGNNGDRGRLLVTNLRILWHSLALSRVNVSVGYNCILNITTRTANSKLRGQTEALYILTKCNSTRFEFIFTNLVPGSPRLFTSVMAVHRAYETSKMYRDFKLRSALIQNKQLRLLPQEHVYDKINGVWNLSSDQGNLGTFFITNVRIVWHANMNDSFNVSIPYLEIRSIKIRDSKFGLALVIESSQQSGGYVLGFKIDPVEKLQESVKEINSLHKVYSASPIFGVDYEMEEKPQPLEALTVEQIQDDVEIDSDGHTDAFVAYFADGNKQQDREPVFSEELGLAIEKLKDGFTLQGLWEVMS [Q205E] | with no effect
MSVLDALWEDRDVRFDLSAQQMKTRPGEVLIDCLDSIEDTKGNNGDRGRLLVTNLRILWHSLALSRVNVSVGYNCILNITTRTANSKLRGQTEALYILTKCNSTRFEFIFTNLVPGSPRLFTSVMAVHRAYETSKMYRDFKLRSALIQNKQLRLLPQEHVYDKINGVWNLSSDQGNLGTFFITNVRIVWHANMNDSFNVSIPYLKIRSIKIRDSKFGLALVIESSQQSGGYVLGFKIDPVEKLQESVKEINSLHKVYSASPIFGVDYEMEEKPQPLEALTVEQIQDDVEIDSDGHTDAFVAYFADGNKQQDREPVFSEELGLAIEKLKDGFTLQGLWEVMS [Q205K] | with no effect
MSVLDALWEDRDVRFDLSAQQMKTRPGEVLIDCLDSIEDTKGNNGDRGRLLVTNLRILWHSLALSRVNVSVGYNCILNITTRTANSKLRGQTEALYILTKCNSTRFEFIFTNLVPGSPRLFTSVMAVHRAYETSKMYRDFKLRSALIQNKQLRLLPQEHVYDKINGVWNLSSDQGNLGTFFITNVRIVWHANMNDSFNVSIPKLQIRSIKIRDSKFGLALVIESSQQSGGYVLGFKIDPVEKLQESVKEINSLHKVYSASPIFGVDYEMEEKPQPLEALTVEQIQDDVEIDSDGHTDAFVAYFADGNKQQDREPVFSEELGLAIEKLKDGFTLQGLWEVMS [Y203K] | with no effect

Results, then the variant that gave them:

effect of a mutation on the interaction | Variant
with no effect | MSVLDALWEDRDVRFDLSAQQMKTRPGEVLIDCLDSIEDTKGNNGDRGRLLVTNLRILWHSLALSRVNVSVGYNCILNITTRTANSKLRGQTEALYILTKCNSTRFEFIFTNLVPGSPRLFTSVMAVHRAYETSKMYRDFKLRSALIQNKQLRLLPQEHVYDKINGVWNLSSDQGNLGTFFITNVRIVWHANMNDSFNVSIPYLQIRAIKIRDSKFGLALVIESSQQSGGYVLGFKIDPVEKLQESVKEINSLHKVYSASPIFGVDYEMEEKPQPLEALTVEQIQDDVEIDSDGHTDAFVAYFADGNKQQDREPVFSEELGLAIEKLKDGFTLQGLWEVMS [S208A]
with no effect | MSVLDALWEDRDVRFDLSAQQMKTRPGEVLIDCLDSIEDTKGNNGDRGRLLVTNLRILWHSLALSRVNVSVGYNCILNITTRTANSKLRGQTEALYILTKCNSTRFEFIFTNLVPGSPRLFTSVMAVHRAYETSKMYRDFKLRSALIQNKQLRLLPQEHVYDKINGVWNLSSDQGNLGTFFITNVRIVWHANMNDSFNVSIPYLQIREIKIRDSKFGLALVIESSQQSGGYVLGFKIDPVEKLQESVKEINSLHKVYSASPIFGVDYEMEEKPQPLEALTVEQIQDDVEIDSDGHTDAFVAYFADGNKQQDREPVFSEELGLAIEKLKDGFTLQGLWEVMS [S208E]
with no effect | MSVLDALWEDRDVRFDLSAQQMKTRPGEVLIDCLDSIEDTKGNNGDRGRLLVTNLRILWHSLALSRVNVSVGYNCILNITTRTANSKLRGQTEALYILTKCNSTRFEFIFTNLVPGSPRLFTSVMAVHRAYETSKMYRDFKLRSALIQNKQLRLLPQEHVYDKINGVWNLSSDQGNLGTFFITNVRIVWHANMNDSFNVSIPYLQIRKIKIRDSKFGLALVIESSQQSGGYVLGFKIDPVEKLQESVKEINSLHKVYSASPIFGVDYEMEEKPQPLEALTVEQIQDDVEIDSDGHTDAFVAYFADGNKQQDREPVFSEELGLAIEKLKDGFTLQGLWEVMS [S208K]
with no effect | MSVLDALWEDRDVRFDLSAQQMKTRPGEVLIDCLDSIEDTKGNNGDRGRLLVTNLRILWHSLALSRVNVSVGYNCILNITTRTANSKLRGQTEALYILTKCNSTRFEFIFTNLVPGSPRLFTSVMAVHRAYETSKMYRDFKLRSALIQNKQLRLLPQEHVYDKINGVWNLSSDQGNLGTFFITNVRIVWHANMNDSFNVSIPYLQIRSAKIRDSKFGLALVIESSQQSGGYVLGFKIDPVEKLQESVKEINSLHKVYSASPIFGVDYEMEEKPQPLEALTVEQIQDDVEIDSDGHTDAFVAYFADGNKQQDREPVFSEELGLAIEKLKDGFTLQGLWEVMS [I209A]
with no effect | MSVLDALWEDRDVRFDLSAQQMKTRPGEVLIDCLDSIEDTKGNNGDRGRLLVTNLRILWHSLALSRVNVSVGYNCILNITTRTANSKLRGQTEALYILTKCNSTRFEFIFTNLVPGSPRLFTSVMAVHRAYETSKMYRDFKLRSALIQNKQLRLLPQEHVYDKINGVWNLSSDQGNLGTFFITNVRIVWHANMNDSFNVSIPYLQIKSIKIRDSKFGLALVIESSQQSGGYVLGFKIDPVEKLQESVKEINSLHKVYSASPIFGVDYEMEEKPQPLEALTVEQIQDDVEIDSDGHTDAFVAYFADGNKQQDREPVFSEELGLAIEKLKDGFTLQGLWEVMS [R207K]
